This is an account of results in article PMC8664833.

This data set addresses ZAP-S (short isoform of zinc-finger antiviral protein) (human, UniProt Q7Z2W4-2 1-699). The data set is described as follows: MST; 5 mM Mg2+. The note with it: protein: recombinant, tags: N-terminal 6xHis-SUMO, label: 3' pCp-Cy5.

Chain of ZAP-S (short isoform of zinc-finger antiviral protein) (Q7Z2W4 other isoform, or with tags, fused parts or gaps): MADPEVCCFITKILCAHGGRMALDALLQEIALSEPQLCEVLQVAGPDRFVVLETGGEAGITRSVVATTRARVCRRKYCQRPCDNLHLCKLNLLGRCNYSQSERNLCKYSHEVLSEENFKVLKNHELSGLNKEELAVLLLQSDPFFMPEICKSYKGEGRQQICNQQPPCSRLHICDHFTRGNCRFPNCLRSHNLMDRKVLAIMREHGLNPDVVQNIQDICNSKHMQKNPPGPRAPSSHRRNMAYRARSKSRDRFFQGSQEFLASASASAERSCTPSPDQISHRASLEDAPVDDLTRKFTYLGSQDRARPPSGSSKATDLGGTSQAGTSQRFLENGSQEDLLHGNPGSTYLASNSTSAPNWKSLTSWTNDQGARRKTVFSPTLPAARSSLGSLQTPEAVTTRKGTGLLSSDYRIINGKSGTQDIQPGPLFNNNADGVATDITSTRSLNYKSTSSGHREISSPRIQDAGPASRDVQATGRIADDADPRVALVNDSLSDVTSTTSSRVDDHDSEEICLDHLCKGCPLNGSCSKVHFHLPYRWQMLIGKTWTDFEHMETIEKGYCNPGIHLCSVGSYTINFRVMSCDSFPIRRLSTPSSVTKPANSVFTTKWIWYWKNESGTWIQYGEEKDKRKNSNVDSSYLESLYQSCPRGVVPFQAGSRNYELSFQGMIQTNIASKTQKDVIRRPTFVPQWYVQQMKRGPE

B1: dSL3 mutant (structured_RNA)
RNA: UCGUUUUUAAACGGGUUUGCGGUGUAAGUGCAGCCCGUCUUACACCGUAUACAGGGCU
As usually defined, the Kd is the constant that tells how readily two partners part at equilibrium. Regarding B1, under “shorter pseudoknot (predicted)”, the Kd was 175 ± 64 nM.

B2: dSL2+3 mutant (SL1 only) (structured_RNA)
RNA: UCGUUUUUAAACGGGUUUGCGGUGUAAGUGCAGCCCGUCUUACACCGU
On to B2, for which the binding result (hairpin) is “no binding”.

B3: dSL2 mutant (structured_RNA)
RNA: UCGUUUUUAAACGGGUUUGCGGUGUAAGUGCAGCCCGUCUUACACCGUGCGGCACAGGCACUAGUACUGAUGUCGU
Turning to B3, the equilibrium dissociation constant (Kd) (two consecutive stem-loops) stood at 672 ± 164 nM.

B4: Compensatory mutant (structured_RNA)
RNA: UCGUUUUUAAACGGGUUUGGGGUGUAAGUGCAGCCCGUCUUACACCCUGGGGCACAGGCACUAGUACUGAUGUCCUAUACAGGGCU
As to B4, the Kd (pseudoknot (predicted)) is 128 ± 29 nM.
